In the data set the target is T1, alpha-s1 casein from Bos taurus.
T1 chain: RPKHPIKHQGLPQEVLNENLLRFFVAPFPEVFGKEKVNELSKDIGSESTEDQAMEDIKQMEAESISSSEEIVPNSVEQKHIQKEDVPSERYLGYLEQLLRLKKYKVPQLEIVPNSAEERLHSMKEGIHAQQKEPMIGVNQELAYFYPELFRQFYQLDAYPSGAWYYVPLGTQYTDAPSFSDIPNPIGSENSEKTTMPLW

Changes are numbered by the printed parent chain. Numbers in names are those of the source.

B1: camel chymosin variant #152 (D290G) (protein)
chain: GKVAREPLTSYLDSQYFGKIYIGTPPQEFTVVFDTGSSDLWVPSIYCKSNVCKNHHRFDPRKSSTFRNLGKPLSIHYGTGSMEGFLGYDTVTVSNIVDPNQTVGLSTEQPGEVFTYSEFDGILGLAYPSLASEYSVPVFDNMMDRHLVARDLFSVYMDRNGQGSMLTLGAIDPSYYTGSLHWVPVTLQQYWQFTVDSVTINGVAVACVGGCQAILDTGTSVLFGPSSDILKIQMAIGATENRYGEFDVNCGNLRSMPTVVFEINGRDYPLSPSAYTSKDQGFCTSGFQGGNNSELWILGDVFIREYYSVFDRANNRVGLAKAI
In turn, B1 showed a (αSN1-1)/(αSN1), 6 hours, 11° C. of 0.9; a (αSN1-1)/(αSN1), 24 hours, 11° C. of 3.4; a αs1-I CN, 6 hours, 11° C. of 2.18e+07 Volume; a αs1-I CN, 24 hours, 11° C. of 3.33e+07 Volume. The protein also yielded a αs1 CN, 6 hours, 11° C. of 2.51e+07 Volume and a αs1 CN, 24 hours, 11° C. of 9.7e+06 Volume.

B2: Chymax M (recombinant camel chymosin) (protein)
chain: B1 chain with G290D
On to B2, for which the (αSN1-1)/(αSN1), 6 hours, 11° C. (average) was 0.5; the (αSN1-1)/(αSN1), 24 hours, 11° C. (average) worked out at 1.2; the “hydrolysis of the first cut in alpha-s1-casein” value was “shows a slow first cut in alpha-s1 casein”; the small, 6 hours, 11° C. was determined as 0 Volume. This protein also gave a small, 16 hours, 30° C. of 9e+06 Volume; a small, 24 hours, 11° C. of 1.1e+07 Volume; a αs1-I CN, 6 hours, 11° C. of 1.28e+07 Volume; a αs1-I CN, 6 hours, 11° C. (average) of 1.81e+07 Volume. The αs1-I CN, 16 hours, 30° C. was 4.3e+06 Volume; the αs1-I CN, 24 hours, 11° C. stood at 1.62e+07 Volume; the αs1-I CN, 24 hours, 11° C. (average) is 2.13e+07 Volume; the αs1-I CN/αs1 CN, 6 hours, 11° C. was determined as 0.5. The αs1-I CN/αs1 CN, 24 hours, 11° C. is 1.3; the αs1 CN, 6 hours, 11° C. came to 2.73e+07 Volume; the αs1 CN, 6 hours, 11° C. (average) was 3.52e+07 Volume; the αs1 CN, 16 hours, 30° C. was found to be 0 Volume. The protein also gave a αs1 CN, 24 hours, 11° C. of 1.25e+07 Volume and a αs1 CN, 24 hours, 11° C. (average) of 1.73e+07 Volume.

B3: camel chymosin variant #162 (L295R) (protein)
chain: B1 chain with G290D, L295R
Regarding B3, the (αSN1-1)/(αSN1), 6 hours, 11° C. stood at 0.5; the (αSN1-1)/(αSN1), 24 hours, 11° C. came to 1.9; the αs1-I CN, 6 hours, 11° C. is 1.65e+07 Volume; the αs1-I CN, 24 hours, 11° C. turned out to be 3.1e+07 Volume. The protein also yielded a αs1 CN, 6 hours, 11° C. of 3.09e+07 Volume and a αs1 CN, 24 hours, 11° C. of 1.67e+07 Volume.

B4: camel chymosin variant #167 (I297V) (protein)
chain: B1 chain with G290D, I297V
Take B4: the (αSN1-1)/(αSN1), 6 hours, 11° C. came out at 0.7; the (αSN1-1)/(αSN1), 24 hours, 11° C. turned out to be 2.9; the αs1-I CN, 6 hours, 11° C. is 2.02e+07 Volume; the αs1-I CN, 24 hours, 11° C. came out at 2.29e+07 Volume. This protein also came in with a αs1 CN, 6 hours, 11° C. of 2.73e+07 Volume and a αs1 CN, 24 hours, 11° C. of 8e+06 Volume.

B5: camel chymosin variant #163 (L295T) (protein)
chain: B1 chain with G290D, L295T
For the protein B5, the (αSN1-1)/(αSN1), 6 hours, 11° C. stood at 0.5; the (αSN1-1)/(αSN1), 24 hours, 11° C. was 1.6; the αs1-I CN, 6 hours, 11° C. came out at 1.48e+07 Volume; the αs1-I CN, 24 hours, 11° C. worked out at 1.79e+07 Volume. This protein displayed a αs1 CN, 6 hours, 11° C. of 2.79e+07 Volume and a αs1 CN, 24 hours, 11° C. of 1.14e+07 Volume.

B6: camel chymosin variant #156 (D290S) (protein)
chain: B1 chain with G290S
The protein B6 registered a (αSN1-1)/(αSN1), 6 hours, 11° C. of 0.5; a (αSN1-1)/(αSN1), 24 hours, 11° C. of 1.9; a αs1-I CN, 6 hours, 11° C. of 1.7e+07 Volume; a αs1-I CN, 24 hours, 11° C. of 3.16e+07 Volume. This protein yielded a αs1 CN, 6 hours, 11° C. of 3.15e+07 Volume and a αs1 CN, 24 hours, 11° C. of 1.71e+07 Volume.

B7: camel chymosin variant #159 (L295I) (protein)
chain: B1 chain with G290D, L295I
As to B7, the (αSN1-1)/(αSN1), 6 hours, 11° C. worked out at 0.6; the (αSN1-1)/(αSN1), 24 hours, 11° C. was determined as 1.8; the αs1-I CN, 6 hours, 11° C. stood at 1.7e+07 Volume; the αs1-I CN, 24 hours, 11° C. was found to be 1.97e+07 Volume. Further, the αs1 CN, 6 hours, 11° C. was determined as 2.95e+07 Volume and the αs1 CN, 24 hours, 11° C. worked out at 1.11e+07 Volume.

B8: camel chymosin variant #155 (D290Q) (protein)
chain: B1 chain with G290Q
Consider B8, for which the (αSN1-1)/(αSN1), 6 hours, 11° C. came out at 0.7; the (αSN1-1)/(αSN1), 24 hours, 11° C. came to 2.5; the αs1-I CN, 6 hours, 11° C. is 2.03e+07 Volume; the αs1-I CN, 24 hours, 11° C. amounted to 3.36e+07 Volume. The same protein yielded a αs1 CN, 6 hours, 11° C. of 3.02e+07 Volume and a αs1 CN, 24 hours, 11° C. of 1.35e+07 Volume.

B9: camel chymosin variant #153 (D290L) (protein)
chain: B1 chain with G290L
Protein B9 gave a (αSN1-1)/(αSN1), 6 hours, 11° C. of 1; a (αSN1-1)/(αSN1), 24 hours, 11° C. of 4.9; a αs1-I CN, 6 hours, 11° C. of 2.35e+07 Volume; a αs1-I CN, 24 hours, 11° C. of 3.49e+07 Volume. The protein further registered a αs1 CN, 6 hours, 11° C. of 2.36e+07 Volume and a αs1 CN, 24 hours, 11° C. of 7.1e+06 Volume.

B10: camel chymosin variant #165 (L295W) (protein)
chain: B1 chain with G290D, L295W
For B10, the (αSN1-1)/(αSN1), 6 hours, 11° C. was 1.5; the (αSN1-1)/(αSN1), 24 hours, 11° C. amounted to 6.7; the αs1-I CN, 6 hours, 11° C. is 3.09e+07 Volume; the αs1-I CN, 24 hours, 11° C. amounted to 3.78e+07 Volume. Further, the αs1 CN, 6 hours, 11° C. was 2.12e+07 Volume and the αs1 CN, 24 hours, 11° C. was found to be 5.7e+06 Volume.

B11: camel chymosin variant #160 (L295K) (protein)
chain: B1 chain with G290D, L295K
The protein B11 registered a (αSN1-1)/(αSN1), 6 hours, 11° C. of 0.6; a (αSN1-1)/(αSN1), 24 hours, 11° C. of 2.1; a αs1-I CN, 6 hours, 11° C. of 1.81e+07 Volume; a αs1-I CN, 24 hours, 11° C. of 2.49e+07 Volume. This protein also displayed a αs1 CN, 6 hours, 11° C. of 2.95e+07 Volume and a αs1 CN, 24 hours, 11° C. of 1.2e+07 Volume.

B12: camel chymosin variant #164 (L295Y) (protein)
chain: B1 chain with G290D, L295Y
For the protein B12, the (αSN1-1)/(αSN1), 6 hours, 11° C. was determined as 0.6; the (αSN1-1)/(αSN1), 24 hours, 11° C. is 1.8; the αs1-I CN, 6 hours, 11° C. is 1.59e+07 Volume; the αs1-I CN, 24 hours, 11° C. came to 2.66e+07 Volume. Besides, the αs1 CN, 6 hours, 11° C. came to 2.49e+07 Volume and the αs1 CN, 24 hours, 11° C. was found to be 1.49e+07 Volume.

B13: camel chymosin variant #158 (L295F) (protein)
chain: B1 chain with G290D, L295F
The protein B13 gave a (αSN1-1)/(αSN1), 6 hours, 11° C. of 0.7; a (αSN1-1)/(αSN1), 24 hours, 11° C. of 2.3; a αs1-I CN, 6 hours, 11° C. of 1.95e+07 Volume; a αs1-I CN, 24 hours, 11° C. of 2.22e+07 Volume. This protein returned a αs1 CN, 6 hours, 11° C. of 2.63e+07 Volume and a αs1 CN, 24 hours, 11° C. of 9.8e+06 Volume.

B14: camel chymosin variant #161 (L295M) (protein)
chain: B1 chain with G290D, L295M
For B14, the (αSN1-1)/(αSN1), 6 hours, 11° C. was found to be 0.6; the (αSN1-1)/(αSN1), 24 hours, 11° C. came to 2; the αs1-I CN, 6 hours, 11° C. is 1.96e+07 Volume; the αs1-I CN, 24 hours, 11° C. turned out to be 2.23e+07 Volume. This protein registered a αs1 CN, 6 hours, 11° C. of 3.15e+07 Volume and a αs1 CN, 24 hours, 11° C. of 1.1e+07 Volume.

B15: camel chymosin variant #166 (I297T) (protein)
chain: B1 chain with G290D, I297T
B15: the (αSN1-1)/(αSN1), 6 hours, 11° C. came to 0.9; the (αSN1-1)/(αSN1), 24 hours, 11° C. turned out to be 3.1; the αs1-I CN, 6 hours, 11° C. is 1.8e+07 Volume; the αs1-I CN, 24 hours, 11° C. turned out to be 1.33e+07 Volume. Moreover, the αs1 CN, 6 hours, 11° C. was 2.1e+07 Volume and the αs1 CN, 24 hours, 11° C. came to 4.2e+06 Volume.

B16: camel chymosin variant #154 (D290M) (protein)
chain: B1 chain with G290M
In the case of B16, the (αSN1-1)/(αSN1), 6 hours, 11° C. is 1.1; the (αSN1-1)/(αSN1), 24 hours, 11° C. amounted to 4.6; the αs1-I CN, 6 hours, 11° C. is 2.69e+07 Volume; the αs1-I CN, 24 hours, 11° C. worked out at 3.77e+07 Volume. Besides, the αs1 CN, 6 hours, 11° C. is 2.52e+07 Volume and the αs1 CN, 24 hours, 11° C. is 8.3e+06 Volume.

B17: camel chymosin variant #157 (D290T) (protein)
chain: B1 chain with G290T
For the protein B17, the (αSN1-1)/(αSN1), 6 hours, 11° C. turned out to be 0.6; the (αSN1-1)/(αSN1), 24 hours, 11° C. was found to be 1.7; the αs1-I CN, 6 hours, 11° C. worked out at 1.76e+07 Volume; the αs1-I CN, 24 hours, 11° C. stood at 2.38e+07 Volume. Further, the αs1 CN, 6 hours, 11° C. was 3.07e+07 Volume and the αs1 CN, 24 hours, 11° C. came to 1.36e+07 Volume.

B18: bovine chymosin B variant #6 (K221M) (protein)
chain: GEVASVPLTNYLDSQYFGKIYLGTPPQEFTVLFDTGSSDFWVPSIYCKSNACKNHQRFDPRKSSTFQNLGKPLSIHYGTGSMQGILGYDTVTVSNIVDIQQTVGLSTQEPGDVFTYAEFDGILGMAYPSLASEYSIPVFDNMMNRHLVAQDLFSVYMDRNGQESMLTLGAIDPSYYTGSLHWVPVTVQQYWQFTVDSVTISGVVVACEGGCQAILDTGTSMLVGPSSDILNIQQAIGATQNQYGEFDIDCDNLSYMPTVVFEINGKMYPLTPSAYTSQDQGFCTSGFQSENHSQKWILGDVFIREYYSVFDRANNLVGLAKAI
As for B18, the “hydrolysis of the first cut in alpha-s1-casein” value is recorded as “show a clear hydrolysis of the first cut in alpha-s1-casein, leading to a rapid formation of fragment alpha-s1-I casein”; the small, 6 hours, 11° C. came out at 0 Volume; the small, 24 hours, 11° C. was determined as 4.3e+06 Volume; the αs1-I CN, 6 hours, 11° C. came to 1.89e+07 Volume. For the same protein, the αs1-I CN, 24 hours, 11° C. was 2.22e+07 Volume; the αs1-I CN/αs1 CN, 6 hours, 11° C. stood at 1; the αs1-I CN/αs1 CN, 24 hours, 11° C. was found to be 4.3; the αs1 CN, 6 hours, 11° C. amounted to 1.81e+07 Volume. Also, the αs1 CN, 24 hours, 11° C. turned out to be 5.1e+06 Volume.

(Values after patent US20150140169.)
